{"source": "FireProtDB (doi:10.1016/0167-4838(91)90474-e)", "settings": "Gallus gallus, Absorbance, Sodium phosphate 0.06 M, reversible: yes, whole UniProt chain shown; for unfolding enthalpy (van 't Hoff): Thermal; for denaturant m value / denaturant midpoint (higher = more stable) / unfolding free energy: 25 °C, Urea", "note": "Values joined by “and” are separate entries in the source; they are usually repeats but may differ in a detail not shown here. Identical values can stand only once.", "data": [{"protein": "Ovomucoid wild type, P01005 (protein) MAMAGVFVLFSFVLCGFLPDAAFGAEVDCSRFPNATDKEGKDVLVCNKDLRPICGTDGVTYTNDCLLCAYSIEFGTNISKEHDGECKETVPMNCSSYANTTSEDGKVMVLCNRAFNPVCGTDGVTYDNECLLCAHKVEQGASVDKRHDGGCRKELAAVSVDCSEYPKPDCTAEDRPLCGSDNKTYGNKCNFCNAVVESNGTLTLSHFGKC", "values": [{"measurement": "unfolding enthalpy (van 't Hoff)", "setting": "pH 5", "value": "34 kcal/mol and 30 kcal/mol"}, {"measurement": "unfolding enthalpy (van 't Hoff)", "setting": "pH 5, transition: 3", "value": "30 kcal/mol and 44 kcal/mol"}, {"measurement": "denaturant m value", "setting": "pH 7", "value": "1.35 kcal/mol/M and 1.15 kcal/mol/M"}, {"measurement": "denaturant midpoint (higher = more stable)", "setting": "pH 7", "value": "2.7 M and 2.8 M"}, {"measurement": "unfolding free energy", "setting": "pH 7", "value": "4.65 kcal/mol and 3.39 kcal/mol"}, {"measurement": "denaturant m value", "setting": "pH 7, transition: 3", "value": "1.01 kcal/mol/M and 1.03 kcal/mol/M and 1.02 kcal/mol/M"}, {"measurement": "denaturant midpoint (higher = more stable)", "setting": "pH 7, transition: 3", "value": "7.3 M and 2.8 M and 6.9 M"}, {"measurement": "unfolding free energy", "setting": "pH 7, transition: 3", "value": "7.66 kcal/mol and 3.39 kcal/mol and 7.42 kcal/mol"}, {"measurement": "unfolding enthalpy (van 't Hoff)", "setting": "pH 7", "value": "58 kcal/mol and 37 kcal/mol"}, {"measurement": "unfolding enthalpy (van 't Hoff)", "setting": "pH 7, transition: 3", "value": "82 kcal/mol and 54 kcal/mol and 46 kcal/mol"}]}]}
